The source of these data is patent publication US20190040149A1.

The target in experiment [1] is cyno PD-1_Fc (cyno). The experiment in a line: bio-layer interferometry (ForteBio), Fab in solution, cyno PD-1_Fc on sensor tip. (Biolayer interferometry detects binding as a change in optical thickness at a sensor tip.)
For experiment [2], the target named is human PD-1 on cells (CHO cells; T cells in the mixed lymphocyte reaction) (human) (UniProt Q15116). The experiment is described as follows: flow cytometry, remaining PD-L2-FITC signal after 100 nM IgG; competitor PD-L2-FITC. Background: A flow cytometer gives signals particle by particle.
human PD-1 on cells (CHO cells; T cells in the mixed lymphocyte reaction) (human), sequence (Q15116 25-288 limits assumed): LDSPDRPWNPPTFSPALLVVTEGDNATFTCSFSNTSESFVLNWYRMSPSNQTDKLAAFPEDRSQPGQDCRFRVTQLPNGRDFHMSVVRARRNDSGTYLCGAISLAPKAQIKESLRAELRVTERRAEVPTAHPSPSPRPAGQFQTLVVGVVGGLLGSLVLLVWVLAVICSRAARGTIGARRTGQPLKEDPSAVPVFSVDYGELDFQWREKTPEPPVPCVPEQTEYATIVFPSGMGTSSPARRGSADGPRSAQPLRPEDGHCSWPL
For experiment [3] the target is unchanged. The experiment is described as follows: cell-based or functional assay.

Fab of pembrolizumab, sequence (VH): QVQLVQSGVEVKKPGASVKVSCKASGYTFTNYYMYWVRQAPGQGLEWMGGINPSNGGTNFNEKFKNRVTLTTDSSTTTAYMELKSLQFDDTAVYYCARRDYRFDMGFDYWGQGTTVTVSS
Fab of pembrolizumab, sequence (VL): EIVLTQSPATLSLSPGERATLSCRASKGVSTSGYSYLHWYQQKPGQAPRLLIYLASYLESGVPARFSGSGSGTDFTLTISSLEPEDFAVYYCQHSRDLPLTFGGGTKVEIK

Substance Fab of nivolumab displayed a Kd in experiment [1] of 1.2 nM.

For the substance Fab of pembrolizumab, the dissociation constant (Kd) in experiment [1] turned out to be 0.47 nM.

IgG Control (antibody) yielded an MFI (PD-L2-FITC) in experiment [2] of 183000 MFI. In experiment [3], this substance had an IFNγ in supernatant, 0.01 nM IgG (IgG control, baseline of the fold change) of 14900 pg/mL; an IFNγ in supernatant, 0.1 nM IgG (IgG control, baseline of the fold change) of 11000 pg/mL; an IFNγ in supernatant, 1 nM IgG (IgG control, baseline of the fold change) of 11600 pg/mL; an IFNγ in supernatant, 10 nM IgG (IgG control, baseline of the fold change) of 13500 pg/mL. In addition, in experiment [3], the IFNγ in supernatant, 100 nM IgG (IgG control, baseline of the fold change) stood at 14900 pg/mL; the IL-2 in supernatant, 0.01 nM IgG (IgG control, baseline of the fold change) stood at 515 pg/mL; the IL-2 in supernatant, 0.1 nM IgG (IgG control, baseline of the fold change) was 509 pg/mL; the IL-2 in supernatant, 1 nM IgG (IgG control, baseline of the fold change) turned out to be 500 pg/mL. In experiment [3], this substance showed an IL-2 in supernatant, 10 nM IgG (IgG control, baseline of the fold change) of 522 pg/mL and an IL-2 in supernatant, 100 nM IgG (IgG control, baseline of the fold change) of 619 pg/mL.

As usually defined, the Kd is the equilibrium constant for the complex coming apart. High values mean weaker binding, low ones tighter binding.
